Source: patent US20240124607A1

Biological target: human CEACAM5 on cells (human) (UniProt P06731)
Assay: flow cytometry, hCEACAM5-B16F10 cells

Sequence of human CEACAM5 on cells (human) (P06731 35-685 limits assumed): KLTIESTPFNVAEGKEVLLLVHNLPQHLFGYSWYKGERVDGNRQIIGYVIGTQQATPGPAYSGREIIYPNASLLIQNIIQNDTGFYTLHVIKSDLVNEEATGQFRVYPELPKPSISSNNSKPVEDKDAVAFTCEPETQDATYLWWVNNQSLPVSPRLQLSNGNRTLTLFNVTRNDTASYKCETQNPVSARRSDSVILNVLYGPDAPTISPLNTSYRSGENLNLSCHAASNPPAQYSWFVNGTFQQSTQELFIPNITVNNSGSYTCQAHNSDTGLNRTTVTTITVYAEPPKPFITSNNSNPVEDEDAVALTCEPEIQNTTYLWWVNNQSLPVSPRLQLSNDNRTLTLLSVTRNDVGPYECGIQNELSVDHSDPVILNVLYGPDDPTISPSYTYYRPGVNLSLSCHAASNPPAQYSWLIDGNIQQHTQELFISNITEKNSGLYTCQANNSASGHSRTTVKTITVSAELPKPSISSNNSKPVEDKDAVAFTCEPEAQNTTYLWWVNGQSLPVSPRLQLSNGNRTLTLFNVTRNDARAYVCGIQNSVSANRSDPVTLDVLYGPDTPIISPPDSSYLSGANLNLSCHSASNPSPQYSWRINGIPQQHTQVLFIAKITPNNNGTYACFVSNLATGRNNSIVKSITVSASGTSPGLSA

B1: mAB0621 mouse surrogate duobody TriNKET (bispecific antibody, part only; not given: NKG2D arm, mouse constant regions, V domains shown, part only)
VH: QVQLVQSGAEVKKPGASVKVSCKASGYTFTAYTIHWVRQAPGQCLEWMGYINPSSGYTEYNQKFKDRTTLTADTSISTAYMELSRLRSDDTAVYYCTREGGLLWFDYWGQGTLVTVSS
VL: DIVMTQSPDSLAVSLGERATINCKSSHSLLYGNFQNNYLAWYQQKPGQPPKLLIYWASTRESGVPDRFSGSGSGTDFTLTISSLQAEDVAVYYCQQYYSYPYTFGCGTKLEIK
EC50: 21.8 nM
